From US20240279318A1 (NANJING LEGEND BIOTECH, published 2024)

Tests used:
[1] = biological target: T1, AFP158/HLA-A*02:01 complex (human); assay: SPR, fold vs AS170036 VL1VH1;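 note: crude scFv muteins immobilised on a sensor chip, peptide–MHC complex passed over at several concentrations, binding then buffer-driven dissociation, KD estimated from on- and off-rates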
T1 construct: flowed as analyte in SPR
Protocol: The experiment was carried out as follows. The crude scFv protein were captured onto the sensorchip. Different concentrations (320, 160, 40 nM) of AFP158/HLA-A*02:01 complex flowed over the sensorchip surface, and were allowed to bind the antibody fragment for 100 s followed by injection of the running buffer to allow dissociation of the complex. On-rate (kd) and off-rate (kd) were calculated based on association and dissociation curve, and were used to estimate the equilibrium dissociation constant (KD).
The crude scFv muteins were then subjected to SPR affinity measurement by the method mentioned above.

[2] = biological target: T1, AFP158/HLA-A*02:01 complex; assay: SPR, crude scFv captured, pMHC analyte;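 note: pMHC analyte injected at three concentrations, association phase of one hundred seconds, then running buffer for dissociation, rates fitted from both curves, KD derived from the rates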

Binder	Affinity increase [1] [fold]	Kd [2] [nM]	koff [2] [s⁻¹]	kon [2] [M⁻¹ s⁻¹]
AS170036 VL1VH1-57M98I (scFv, also called 14-AS170036 VL1VH1-57M98I) scFv: QSALTQPRSVSGSPGQSVTISCAGTSSDVGSENYVSWYQQHPGKAPKLMIYQVNKRASGVPDRFSGSKSGNTASLTISGLQAEDEADYYCASYRSSDINIVFGGGTKLTVLGGGGSGGGGSGGGGSEVQLVESGGGLVQPGGSLRLSCAASGFTFSSYAMSWVRQAPGKGLEWVSTINSGTGMPYYADSVKGRFTISRDNSKNTLYLQMNSLRAEDTAVYYCAKNFFDGSWFLGPPAMDYWGQGTLVTVSSHHHHHH	5.6	40	0.013	310000
AS170036 VL1VH1-57M108A (scFv, also called 28-AS170036 VL1VH1-57M108A) scFv: QSALTQPRSVSGSPGQSVTISCAGTSSDVGSENYVSWYQQHPGKAPKLMIYQVNKRASGVPDRFSGSKSGNTASLTISGLQAEDEADYYCASYRSSDHNIVFGGGTKLTVLGGGGSGGGGSGGGGSEVQLVESGGGLVQPGGSLRLSCAASGFTFSSYAMSWVRQAPGKGLEWVSTINSGTGMPYYADSVKGRFTISRDNSKNTLYLQMNSLRAEDTAVYYCAKNFFDGSWFLAPPAMDYWGQGTLVTVSSHHHHHH	13.6	17	0.004	240000
AS170036 VL1VH1-98F108D (scFv, also called 32-AS170036 VL1VH1-98F108D) scFv: QSALTQPRSVSGSPGQSVTISCAGTSSDVGSENYVSWYQQHPGKAPKLMIYQVNKRASGVPDRFSGSKSGNTASLTISGLQAEDEADYYCASYRSSDFNIVFGGGTKLTVLGGGGSGGGGSGGGGSEVQLVESGGGLVQPGGSLRLSCAASGFTFSSYAMSWVRQAPGKGLEWVSTINSGTGSPYYADSVKGRFTISRDNSKNTLYLQMNSLRAEDTAVYYCAKNFFDGSWFLDPPAMDYWGQGTLVTVSSHHHHHH	17.6	13	0.0057	450000
AS170036 VL1VH1-57M108S (scFv, also called 30-AS170036 VL1VH1-57M108S) scFv: QSALTQPRSVSGSPGQSVTISCAGTSSDVGSENYVSWYQQHPGKAPKLMIYQVNKRASGVPDRFSGSKSGNTASLTISGLQAEDEADYYCASYRSSDHNIVFGGGTKLTVLGGGGSGGGGSGGGGSEVQLVESGGGLVQPGGSLRLSCAASGFTFSSYAMSWVRQAPGKGLEWVSTINSGTGMPYYADSVKGRFTISRDNSKNTLYLQMNSLRAEDTAVYYCAKNFFDGSWFLSPPAMDYWGQGTLVTVSSHHHHHH	6.8	33	0.0067	200000
AS170036 VL1VH1-98F108A (scFv, also called 31-AS170036 VL1VH1-98F108A) scFv: QSALTQPRSVSGSPGQSVTISCAGTSSDVGSENYVSWYQQHPGKAPKLMIYQVNKRASGVPDRFSGSKSGNTASLTISGLQAEDEADYYCASYRSSDFNIVFGGGTKLTVLGGGGSGGGGSGGGGSEVQLVESGGGLVQPGGSLRLSCAASGFTFSSYAMSWVRQAPGKGLEWVSTINSGTGSPYYADSVKGRFTISRDNSKNTLYLQMNSLRAEDTAVYYCAKNFFDGSWFLAPPAMDYWGQGTLVTVSSHHHHHH	19.1	12	0.0039	330000

The remaining binders from weak to strong by Kd [2], led by results:

Affinity increase [1] [fold]	Kd [2] [nM]	koff [2] [s⁻¹]	kon [2] [M⁻¹ s⁻¹]	Binder
8	28	0.0067	240000	AS170036 VL1VH1-57M98Q (scFv, also called 15-AS170036 VL1VH1-57M98Q) scFv: QSALTQPRSVSGSPGQSVTISCAGTSSDVGSENYVSWYQQHPGKAPKLMIYQVNKRASGVPDRFSGSKSGNTASLTISGLQAEDEADYYCASYRSSDQNIVFGGGTKLTVLGGGGSGGGGSGGGGSEVQLVESGGGLVQPGGSLRLSCAASGFTFSSYAMSWVRQAPGKGLEWVSTINSGTGMPYYADSVKGRFTISRDNSKNTLYLQMNSLRAEDTAVYYCAKNFFDGSWFLGPPAMDYWGQGTLVTVSSHHHHHH
11.8	19	0.0055	290000	AS170036 VL1VH1-57M108D (scFv, also called 29-AS170036 VL1VH1-57M108D) scFv: QSALTQPRSVSGSPGQSVTISCAGTSSDVGSENYVSWYQQHPGKAPKLMIYQVNKRASGVPDRFSGSKSGNTASLTISGLQAEDEADYYCASYRSSDHNIVFGGGTKLTVLGGGGSGGGGSGGGGSEVQLVESGGGLVQPGGSLRLSCAASGFTFSSYAMSWVRQAPGKGLEWVSTINSGTGMPYYADSVKGRFTISRDNSKNTLYLQMNSLRAEDTAVYYCAKNFFDGSWFLDPPAMDYWGQGTLVTVSSHHHHHH
